Measurements as given in patent US20220135701A1 (Genentech, published 2022).
Where two headings read alike, the source gives them in different places. One block for each molecule: values may come before it.

Columns and labels:
[1] = target: T1, mouse MerTK on mouse macrophages (mouse, UniProt Q60805 19-994); test: cell-based or functional assay
T1 sequence (looked up): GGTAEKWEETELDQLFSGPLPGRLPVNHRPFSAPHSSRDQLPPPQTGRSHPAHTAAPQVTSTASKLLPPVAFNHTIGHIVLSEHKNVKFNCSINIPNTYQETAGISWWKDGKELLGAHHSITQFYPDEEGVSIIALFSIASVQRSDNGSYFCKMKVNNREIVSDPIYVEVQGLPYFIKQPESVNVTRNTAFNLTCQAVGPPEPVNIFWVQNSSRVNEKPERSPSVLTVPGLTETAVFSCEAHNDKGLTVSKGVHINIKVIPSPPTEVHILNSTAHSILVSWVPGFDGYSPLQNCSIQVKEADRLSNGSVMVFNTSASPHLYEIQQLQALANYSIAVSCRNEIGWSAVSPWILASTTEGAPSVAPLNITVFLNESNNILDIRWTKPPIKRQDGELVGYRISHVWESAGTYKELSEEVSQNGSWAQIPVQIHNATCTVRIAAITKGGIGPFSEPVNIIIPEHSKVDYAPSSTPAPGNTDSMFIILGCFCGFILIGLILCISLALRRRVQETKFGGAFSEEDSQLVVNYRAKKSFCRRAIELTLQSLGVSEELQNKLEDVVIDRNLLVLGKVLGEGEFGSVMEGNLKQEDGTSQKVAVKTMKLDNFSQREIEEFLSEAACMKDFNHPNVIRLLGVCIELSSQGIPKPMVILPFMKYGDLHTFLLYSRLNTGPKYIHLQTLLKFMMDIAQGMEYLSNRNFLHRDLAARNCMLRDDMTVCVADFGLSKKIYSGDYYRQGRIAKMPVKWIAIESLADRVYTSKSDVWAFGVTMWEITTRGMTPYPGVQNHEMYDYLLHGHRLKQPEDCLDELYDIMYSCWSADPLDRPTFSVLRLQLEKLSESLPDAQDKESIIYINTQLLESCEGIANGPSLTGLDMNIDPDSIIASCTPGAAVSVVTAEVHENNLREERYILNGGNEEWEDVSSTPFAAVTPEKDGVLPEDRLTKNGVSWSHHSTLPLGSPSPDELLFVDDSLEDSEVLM

human MerTK [2] = target: T2, human MerTK (human, UniProt Q12866 26-499); test: SPR BIAcore T200, Ab captured, 37C
T2 construct: also called HuMER
T2 sequence: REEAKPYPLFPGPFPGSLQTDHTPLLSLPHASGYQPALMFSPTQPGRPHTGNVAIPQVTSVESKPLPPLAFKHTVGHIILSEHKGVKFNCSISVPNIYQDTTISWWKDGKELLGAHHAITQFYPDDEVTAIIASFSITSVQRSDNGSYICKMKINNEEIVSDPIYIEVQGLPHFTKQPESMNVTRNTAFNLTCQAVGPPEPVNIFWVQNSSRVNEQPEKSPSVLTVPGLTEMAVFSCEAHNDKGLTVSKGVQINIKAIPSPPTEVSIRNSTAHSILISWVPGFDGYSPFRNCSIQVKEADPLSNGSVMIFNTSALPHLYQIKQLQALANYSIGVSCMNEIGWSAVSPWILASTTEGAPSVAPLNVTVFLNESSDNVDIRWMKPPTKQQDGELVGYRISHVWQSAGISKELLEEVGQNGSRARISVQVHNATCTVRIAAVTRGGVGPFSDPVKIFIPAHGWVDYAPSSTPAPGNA
How it was run: (§1)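 Rabbit or humanized antibody captured to ~100 RU; MerTK injected as 3-fold dilutions from 0.4 nM to 100 nM in HBS-EP (HEPES pH 7.4) at 30 μl/min, at 25° C. or 37° C. kon and koff fitted to a 1:1 Langmuir model; KD = koff/kon.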

cynomolgus monkey MerTK [3] = target: T3, cynomolgus monkey MerTK (cynomolgus monkey, UniProt A0A2K5V1H9 32-505); test: SPR BIAcore T200, Ab captured, 37C
T3 construct: Soluble analyte in SPR; also called Cyno MerTK
T3 sequence: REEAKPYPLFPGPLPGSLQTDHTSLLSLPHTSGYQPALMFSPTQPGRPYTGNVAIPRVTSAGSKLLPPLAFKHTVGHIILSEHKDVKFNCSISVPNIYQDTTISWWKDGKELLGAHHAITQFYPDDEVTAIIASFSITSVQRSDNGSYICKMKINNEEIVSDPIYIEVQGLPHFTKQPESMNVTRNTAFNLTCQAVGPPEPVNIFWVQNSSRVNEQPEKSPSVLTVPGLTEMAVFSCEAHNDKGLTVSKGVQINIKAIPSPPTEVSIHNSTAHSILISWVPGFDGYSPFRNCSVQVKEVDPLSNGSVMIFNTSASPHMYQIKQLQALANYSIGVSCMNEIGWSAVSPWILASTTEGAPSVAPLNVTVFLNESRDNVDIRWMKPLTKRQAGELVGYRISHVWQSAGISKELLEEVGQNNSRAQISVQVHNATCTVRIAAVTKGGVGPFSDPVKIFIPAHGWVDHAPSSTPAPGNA
How it was run: as §1

mouse MerTK [4] = target: T4, mouse MerTK (mouse, UniProt Q60805 23-496); test: SPR BIAcore T200, Ab captured, 37C
T4 construct: also called MuMER
T4 sequence (looked up): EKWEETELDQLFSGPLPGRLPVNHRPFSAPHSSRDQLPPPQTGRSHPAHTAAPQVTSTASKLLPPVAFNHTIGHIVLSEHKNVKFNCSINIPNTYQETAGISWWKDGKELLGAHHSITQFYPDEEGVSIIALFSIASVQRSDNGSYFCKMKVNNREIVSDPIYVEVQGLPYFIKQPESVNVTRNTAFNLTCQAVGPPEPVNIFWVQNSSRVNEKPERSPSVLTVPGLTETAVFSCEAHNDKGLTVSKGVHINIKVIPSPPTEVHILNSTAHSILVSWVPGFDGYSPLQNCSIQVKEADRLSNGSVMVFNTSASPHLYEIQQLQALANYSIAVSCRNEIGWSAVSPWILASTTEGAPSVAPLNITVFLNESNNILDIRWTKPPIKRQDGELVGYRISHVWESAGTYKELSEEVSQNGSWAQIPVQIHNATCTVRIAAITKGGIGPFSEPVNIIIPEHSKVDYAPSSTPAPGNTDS
How it was run: as §1

rat MerTK [5] = target: T5, rat MerTK (rat, UniProt P57097 23-496, limits assumed); test: SPR BIAcore T200, Ab captured, 37C
T5 construct: Soluble analyte in SPR
T5 sequence (looked up): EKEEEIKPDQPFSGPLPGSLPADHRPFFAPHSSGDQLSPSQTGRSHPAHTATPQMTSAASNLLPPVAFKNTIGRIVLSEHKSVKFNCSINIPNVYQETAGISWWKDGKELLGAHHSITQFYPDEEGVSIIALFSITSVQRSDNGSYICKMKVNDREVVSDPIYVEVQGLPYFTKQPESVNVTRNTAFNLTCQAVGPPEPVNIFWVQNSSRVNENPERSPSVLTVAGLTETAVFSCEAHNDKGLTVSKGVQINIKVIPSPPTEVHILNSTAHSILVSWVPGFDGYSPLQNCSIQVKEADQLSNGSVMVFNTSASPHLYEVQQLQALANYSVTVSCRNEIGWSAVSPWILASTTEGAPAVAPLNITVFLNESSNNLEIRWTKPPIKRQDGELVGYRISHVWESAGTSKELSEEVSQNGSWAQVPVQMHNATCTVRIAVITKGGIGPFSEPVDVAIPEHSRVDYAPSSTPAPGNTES
How it was run: as §1

human MerTK [6] = target: T2, human MerTK; test: SPR BIAcore T200, Ab captured, 37C; remark: listed apart in the source
Experimental: (§2) All binding affinity determinations were obtained using Surface Plasmon Resonance (SPR) measurements from a BIAcore™-T200 instrument. Briefly, each rabbit or humanized antibody was captured to achieve approximately 100 RU (Response Units). Then, 3-fold serial dilutions of MerTK from various species (0.4 nM to 100 nM) diluted in HBS-EP buffer (0.01M HEPES pH 7.4, 0.15M NaCl, 3 mM EDTA and 0.05% v/v surfactant P20) was injected into the BIAcore™-T200 instrument at 25° C. or 37° C. with a flow rate of 30 μl/min. Association rates (kₒₙ) and dissociation rates (koff) were calculated using a simple one-to-one Langmuir binding model (BIAcore T200 evaluation software version 2.0). The equilibrium dissociation constant (KD) was calculated as the ratio koff/kₒₙ.

cynomolgus monkey MerTK [7] = target: T3, cynomolgus monkey MerTK; test: SPR BIAcore T200, Ab captured, 37C; remark: listed apart in the source
Experimental: as §2

mouse MerTK [8] = target: T4, mouse MerTK; test: SPR BIAcore T200, Ab captured, 37C; remark: listed apart in the source
Experimental: as §2

rat MerTK [9] = target: T5, rat MerTK; test: SPR BIAcore T200, Ab captured, 37C; remark: listed apart in the source
Experimental: as §2

human MerTK [10] = target: T2, human MerTK; test: SPR BIAcore T200, Ab captured, 37C; remark: listed apart in the source
[11] = target: T1, mouse MerTK on mouse macrophages; test: cell-based or functional assay; remark: listed apart in the source
[12] = target: T1, mouse MerTK on mouse macrophages; test: cell-based or functional assay; remark: listed apart in the source
human MerTK [13] = target: T2, human MerTK; test: SPR BIAcore T200, Ab captured, 37C; remark: listed apart in the source
Experimental: as §2

cynomolgus monkey MerTK [14] = target: T3, cynomolgus monkey MerTK; test: SPR BIAcore T200, Ab captured, 37C; remark: listed apart in the source
Experimental: as §2

MuMER (E23-S496) = target: T6, MuMER (E23-S496) (mouse, UniProt Q60805 23-496); test: SPR BIAcore T200, Ab captured, 25C
T6 construct: range 23-496; also called mouse MerTK extracellular domain
T6 sequence (looked up): T4 sequence (looked up)
How it was run: (§3)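 Rabbit antibody captured to ~100 RU; MerTK domain injected as 3-fold dilutions (0.4–100 nM) in HBS-EP pH 7.4 at 25 °C, 30 μl/min. kon and koff from 1:1 Langmuir fit; KD = koff/kon.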

HuMER (R26-A499) = target: T7, HuMER (R26-A499) (human, UniProt Q12866 26-499); test: SPR BIAcore T200, Ab captured, 25C
T7 construct: Extracellular domain with both Ig-like and both fibronectin-like domains; also called human MerTK extracellular domain
T7 sequence: T2 sequence
How it was run: as §3

human MerTK [15] = target: T2, human MerTK; test: SPR BIAcore T200, Ab captured, 25C
How it was run: as §1

cynomolgus monkey MerTK [16] = target: T3, cynomolgus monkey MerTK; test: SPR BIAcore T200, Ab captured, 25C
How it was run: as §1

mouse MerTK [17] = target: T4, mouse MerTK; test: SPR BIAcore T200, Ab captured, 25C
How it was run: as §1

Molecule: recombinant human GAS6-Fc protein (from UniProt Q14393 31-678) (Fc fusion)
pAKT levels in macrophages incubated with the ligand [1]: 84 pM

B1: h10C3.v1 (antibody, V domains shown)
VH: EQQLVESGGGLVQPGGSLRLSCAASGFSLSGYTMGWVRQAPGKGLEYIGVISSGGTTYYTNWAKGRFTISKDSSKNTVYLQMGSLRAEDMAVYFCARVAFTAYGGGGFPTLHRLDLWGQGTLVTVSS
VL: DQVLTQSPDSLAVSLGERATINCQSSESVYNNDYLAWYQQKPGQPPKLLIYSASTLASGVPDRFSGSGSGTDFTLTISSLQAEDVAVYYCAGGYLGNNVFGGGTKVEIK
notes: also called h10C3.V1 (Parent); 10C3 Humanized mAb V1
Kd (human MerTK [2]): 11.6 nM | Kd (cynomolgus monkey MerTK [3]): 5.3 nM | Kd (mouse MerTK [4]): 1 nM | Kd (rat MerTK [5]): 3.3 nM | Kd (human MerTK [6]): 12.9 nM | Kd (cynomolgus monkey MerTK [7]): 5.3 nM | Kd (mouse MerTK [8]): 1.1 nM | Kd (rat MerTK [9]): 3.3 nM | Kd (human MerTK [10]): 13.8 nM

B3: h13B4.v1 (antibody, V domains shown)
VH: EQQLVESGEGLVQPGGSLRLSCAVSGFSLSSYAMGWVRQAPGKGLEWIGIINSYGNTYYANWAKGRFTISRDSSKNTVYLQMGSLRAEDMAVYFCARDPGVSSNLWGPGTLVTVSS
VL: DVQMTQSPSTLSASVGDRVTITCQASQNIYSGLAWYQQKPGKPPKLLIYGASKLASGVPSRFSGSGSGTEFTLTISSLQPDDFATYYCQATYYSSNSVAFGGGTKVEIK
notes: also called h13B4.V1 (Parent); 13B4 Humanized mAb V1
Kd (human MerTK [2]): 4.8 nM | Kd (cynomolgus monkey MerTK [3]): 5.6 nM | Kd (human MerTK [10]): 4.8 nM | Kd (human MerTK [13]): 4.3 nM | Kd (cynomolgus monkey MerTK [14]): 5 nM

The remaining lines, values ahead:

fold decrease in phagocytic clearance of apoptotic thymocytes by peritoneal macrophages, against control anti-gp120 [11]: ~8 fold | fold potency in inhibiting mouse macrophage phagocytosis, against h10F7.v16 [11]: 4.8 fold | IC50 (nM), efferocytosis by mouse macrophages, Average [12]: 0.19 nM
B2: anti-MerTK 14C9 (mIgG2a LALAPG) (antibody, V domains shown)
VH: QSVEESGGRLVTPGTPLTLTCTVSGIDLSANTMNWVRQAPGKGLEWIGIFTATGSTYYATWVNGRFTISKTSTTVDLKITSPTTEDTATYFCARSGSGSSSGAFNIWGPGTLVTVSL
VL: DPVLTQTPASVSEPVGGTVTIKCQASQSISSSLAWYQQKPGQPPKLLIYAASILASEISSRFKGSRSGTEFTLTISDLECADAATYYCQCTSYGSLFLGPFGGGTEVVVK

Kd (MuMER (E23-S496)): 0.7 nM | Kd (HuMER (R26-A499)): 3.4 nM | Kd (human MerTK [6]): 9.9 nM | Kd (cynomolgus monkey MerTK [7]): 4.1 nM | Kd (mouse MerTK [8]): 0.8 nM | Kd (rat MerTK [9]): 2.4 nM | Kd (human MerTK [15]): 3.4 nM | Kd (cynomolgus monkey MerTK [16]): 3 nM | Kd (mouse MerTK [17]): 0.7 nM
B4: Rbt10C3 (antibody, V domains shown)
VH: QSLEESGGRLVTPGTPLTLTCTASGFSLSGYTMGWVRQAPGKGLEYIGVISSGGTTYYTNWAKGRFTISKTSTTVDLKITSPTTEDTATYFCARVAFTAYGGGGFPTLHRLDLWGQGTLVTVSS
VL: AQVLIQTASSVSAAVGGTVTISCQSSESVYNNDYLAWYQQKPGQPPKLLIYSASTLASGVPSRFKGSGSGTQFTLTISDLECDDAATYYCAGGYLGNNVFGGGTEVVVK
notes: Recombinant rabbit monoclonal antibody, Expi293, protein A purified
